Results on 30 sequences are retold here after the supplement of paper PMC9170038.

The test system of this data set is MS2 coat protein. Description: apparent KD of MS2 coat protein; designed switch direction (-1 OFF switch, 1 ON switch): -1; higher = weaker reporter binding. An outline of the steps:
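Stalled E. coli RNA polymerase transcribed designed RNA switches on Illumina chips, which were then titrated with SNAP-549-labelled MS2 coat protein, doubling from 0.7 or 1.5 nM to 3 µM. Steps lasted from 0.8–1.5 h at the lowest concentration to 10–20 min at the highest. The apparent KD is each design's median over clusters of curve-fitted normalised fluorescence.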

Where [1] appears, read: input ligand: microRNA oligo, concentration not stated.
Setting [2] is: Eterna round: R95, input ligand: FMN 200 uM.
Setting [3] is: Eterna round: R95, input ligand: microRNA oligo, concentration not stated.
Setting [4] is: Eterna round: R95, input ligand: none.

With “AUUAUAUAGACAGGAUAUAGAAUAUUAUUUUAACAUGAGGAUCACCCAUGUAACCUUAUGUGUAGCUAGAAGGGUCAUUUAUUA [Title] (Eterna round: R96, puzzle: Exclusion NG 2)”, the “apparent KD of MS2 coat protein” value under setting [1] turned out to be 77.4 nM.
Regarding “AGUACUAUGCGAGCUGACUUGCGUAGUGCAGCAGGUGUAACAUGAGGAUCACCCAUGUCCUCAUUUGCUCGUCUUAA [Mat - Sensor v3 - Turn-off var 2 - D9] (puzzle: Sensor v3, turn-off variant 2)”, the “apparent KD of MS2 coat protein” value is 240 nM under setting [2], 288 nM under setting [3] and 235 nM under setting [4].
Regarding “CCUUUGUCAGGAUAUCAGAACACGCUCCUAGGGAGCGCAAAUGAGAAGGGACAUGAGGAUCACCCAUGUAAAGA [Arisesat] (puzzle: Exclusion 4)”, the “apparent KD of MS2 coat protein” value worked out at 318 nM under setting [2], 41.6 nM under setting [3] and 54.8 nM under setting [4].
On to “ACAAGCUUUUAGAUUUUCAACAUGAGGAUCACCCAUGUUCGUCUUAUGCUAGUGCGAGUGCGGUGUACUCGUAUUAG [JL TOV1 3.81 sellena mod] (Eterna round: R97, puzzle: Sensor, turn-off variant 1)”, for which the “apparent KD of MS2 coat protein” value (input ligand: FMN 200 uM) was 18.2 nM and the “apparent KD of MS2 coat protein” value (input ligand: none) was found to be 16.8 nM.
On to “AGCAAGUUAGGAUAUCUUAAAGUUAGGUGAUGUCCUGUUUGAGAGAAGGAACAUGAGGAUCACCCAUGUGGUCA [Eternabot (L2) Solution 56] (Eterna round: R97, puzzle: Exclusion 4)”, for which the “apparent KD of MS2 coat protein” value runs as follows: (input ligand: FMN 200 uM) 58.3 nM; (input ligand: none) 62.6 nM.
For “AAUUUUUAUGUAAGGAUAUAAGUUUGGAAACGGGCUUAGAAGGUACAUGAGGAUCACCCAUGUAUAAUGUGCGU [-20.6, -20.4 kcal, 32% A] (Eterna round: R97, puzzle: Brourd's mod of Exclusion 4)”, the “apparent KD of MS2 coat protein” value runs as follows: (input ligand: FMN 200 uM) 52 nM; (input ligand: none) 23.2 nM.
Consider “GUGGGUUACAUGAGGAUCACCCAUGUAUAGUGGGAAAAGAUAUAGGAUAUAAUAUAAAAAUUAUAUUAGAAGGAUAGAGACUAG [AK ExNG3-1.1] (Eterna round: R96, puzzle: Exclusion NG 3)”, for which the “apparent KD of MS2 coat protein” value is, setting by setting: (input ligand: FMN 200 uM) 727 nM; under setting [1], 260 nM; (input ligand: none) 896 nM.
With “GUCUCGUCAGGAUAUGACGCUACAUUUUUUUUUUAGAAGAGUCAGAAGGGACAUGAGGAUCACCCAUGUGAUUC [Ex4 - 3 - 2] (puzzle: Exclusion 4)”, the “apparent KD of MS2 coat protein” value under setting [3] was 167 nM.
As for “GCACGGAGUGUAGGAUAUUAGUGCGAUUAGCACUGAGAAGGACAUGAGGAUCACCCAUGUUCCUCUAAAAUUAGCCUUCCGUGC [Eli exng1 - 036] (Eterna round: R96, puzzle: Exclusion NG 1)”, the “apparent KD of MS2 coat protein” value runs as follows: (input ligand: FMN 200 uM) 12.4 nM; under setting [1], 10.7 nM; (input ligand: none) 14.8 nM.
For “ACAAGCUUAUUGCUCGGGUACAUGAGGAUCACCCAUGUUAGUGAUUAUAGAGAAUGUGUUGACGUGCGCUGCAGGUU [JR_SV3TOV1_Sub079] (puzzle: Sensor v3, turn-off variant 1)”, the “apparent KD of MS2 coat protein” value was 75.5 nM under setting [2], 46 nM under setting [3] and 92.2 nM under setting [4].
With “CAGGAUAGAGGAUAUACAUAGAUACAGAUUCAUGUAAUCCUACAUGAGGAUCACCCAUGUAGAAGGCUAUCCUG [Fiskers Ex 2 - 16] (puzzle: Exclusion 2)”, under setting [3], the “apparent KD of MS2 coat protein” value was determined as 15.4 nM.
In the case of “GUUUGACAUGAGGAUCACCCAUGUAAGGAUAUACGAGUAGAUGAUAGAUAGAUAGUAUGUAGAAGGUACGUGUU [EX1 #61] (Eterna round: R97, puzzle: Exclusion 1)”, the “apparent KD of MS2 coat protein” value (input ligand: FMN 200 uM) was 74.3 nM and the “apparent KD of MS2 coat protein” value (input ligand: none) worked out at 92.8 nM.
As to “GAAAAUGUGGAGGAUAUCGACUUCGAAAGAAGUCGAGAAGGCCACACAUGAGGAUCACCCAUGUGAUGCCAAUA [Omei Ex6 H9] (Eterna round: R97, puzzle: Exclusion 6)”, the “apparent KD of MS2 coat protein” value reads like this: (input ligand: FMN 200 uM) 443 nM; (input ligand: none) 284 nM.
In the case of “GGCACACAUGAGGAUCACCCAUGUGAGGAUAUUAGGCGAUCGUCGAAAGACGAUAGCCUGAGAAGGCACAUGCC [Eli x1 4.12] (Eterna round: R97, puzzle: Exclusion 1)”, the “apparent KD of MS2 coat protein” value is, setting by setting: (input ligand: FMN 200 uM) 92.2 nM; (input ligand: none) 19.8 nM.
Taken in the same sequence, the figures for “UCUUAGCAAGCAAAUGGGUACAUGAGGAUCACCCAUGUGCUCGUCUUAUAAGGUACUGUGACGAAAGUCACGGUACC [mod--Eli8] (Eterna round: R97, puzzle: Sensor, turn-off variant 1)” were 24.7 nM and 19.5 nM.
Regarding “AGACAGUCAGGAUAUACAUGAGGAUCACCCAUGUUGAGAUGAGAAAGGGCAGGAAGAGGUAGAAGGGACGAGAG [JR_Exclu3_Sub036] (puzzle: Exclusion 3)”, the “apparent KD of MS2 coat protein” value under setting [2] was 31 nM, the “apparent KD of MS2 coat protein” value under setting [3] is 24.7 nM and the “apparent KD of MS2 coat protein” value under setting [4] is 30.4 nM.
Consider “UACAUGAGGAUCACCCAUGUUUUGUCGUGUAUGGUAUUUAUCUAGGAUAUCAUUUAAUUUAUUUAUGAGAAGGAGAAUAUUAAU [JMF's solution 99] (Eterna round: R96, puzzle: Exclusion NG 3)”, for which the “apparent KD of MS2 coat protein” value (input ligand: FMN 200 uM) came to 29.8 nM, the “apparent KD of MS2 coat protein” value under setting [1] was 28 nM and the “apparent KD of MS2 coat protein” value (input ligand: none) came to 31.1 nM.
On to “UGUUGUCGCGUAGGAUAUGGCCAACAGGCCCUAGGAUAUGCGAAAGCAGAAGGAGCGCCAACAGGCGAGAAGGACGGGACAACU [pwkr exNG2 2xF7 2xFMN.17] (Eterna round: R96, puzzle: Exclusion NG 2)”, for which the “apparent KD of MS2 coat protein” value (input ligand: FMN 200 uM) was 20.6 nM, the “apparent KD of MS2 coat protein” value under setting [1] turned out to be 13.6 nM and the “apparent KD of MS2 coat protein” value (input ligand: none) is 359 nM.
Take “ACCUCACAUGAGGAUCACCCAUGUCAGGAUAUCCAACAUGCUCCCAGGACCAAGCAUAGGAGAAGGGACAUGCG (Eterna round: R97, puzzle: Exclusion 1)”: the “apparent KD of MS2 coat protein” value is, setting by setting: (input ligand: FMN 200 uM) 76.5 nM; (input ligand: none) 27.2 nM.
Taken in the same sequence, the figures for “UGUGUCCGGGAGGAUAUCAGAACGCUAGUGGUCUGAGAAGGCCUAACAUGAGGAUCACCCAUGUGAUUAUUUAU [Eternabot (L2) Solution 51] (Eterna round: R97, puzzle: Exclusion 6)” were 93.4 nM and 52.5 nM.
As to “UUUUUCGAACAAGCAUCGAACAUGAGGAUCACCCAUGUAGGUAGAUUUGAGUAGGUAUGGAAGUAAGCUCGUCUUAU [JR_SV3TOV1_Sub080] (puzzle: Sensor v3, turn-off variant 1)”, the “apparent KD of MS2 coat protein” value was 39.4 nM under setting [2], 107 nM under setting [3] and 53.9 nM under setting [4].
“AGUUAUGCAGGAUAUUGCGGGCCAGACAUGAGGAUCACCCAUGUGUGGGAGUCCUGCGCGCGAGAAGGGCAGACAA [EX5 B.22] (Eterna round: R97, puzzle: Exclusion 5)”: the “apparent KD of MS2 coat protein” value by setting is: (input ligand: FMN 200 uM) 28.9 nM; (input ligand: none) 20.4 nM.
As for “ACAUGAGGAUCACCCAUGUAAACAUAAUGGCUCAUGUAGAGUCAGGAUAUGCGUGGCGAACUCGCGCAGAAGGGACAAGACUGG [Deportation 23 - Jieux - Exclusion NG 3] (Eterna round: R96, puzzle: Exclusion NG 3)”, the “apparent KD of MS2 coat protein” value came to 26.7 nM (input ligand: FMN 200 uM), 20.6 nM under setting [1] and 26.4 nM (input ligand: none).
As for “AUAUACGGGCAGGAUAUGCGAGCCAGAAAGCACGCAGAAGGGCUAACAUGAGGAUCACCCAUGUGAGCAACUCG [Eternabot (Original) Solution 9] (Eterna round: R97, puzzle: Exclusion 6)”, the “apparent KD of MS2 coat protein” value was 18.1 nM (input ligand: FMN 200 uM) and 14.9 nM (input ligand: none).
In the case of “UUUAUGUCAGGAUAUGAGUAGUAGAACAAUAGUACUACUACUCAGAAGGGACAUGAGGAUCACCCAUGUUCUUC [Fiskers Ex 4 Super stable 44 mod 23] (puzzle: Exclusion 4)”, the “apparent KD of MS2 coat protein” value under setting [3] worked out at 16.3 nM.
As to “AUCAGCUCGUCAGGAUAUACAUGAGGAUCACCCAUGUGGUCAUUAGCAGCUUCGGCUGCAUUAAUGUAGAAGGGACGAGCUGAU [ENG2/8-B2] (Eterna round: R96, puzzle: Exclusion NG 2)”, the “apparent KD of MS2 coat protein” value (input ligand: FMN 200 uM) came to 544 nM, the “apparent KD of MS2 coat protein” value under setting [1] was determined as 522 nM and the “apparent KD of MS2 coat protein” value (input ligand: none) worked out at 502 nM.
As for “GCCGUCAGUGUGAGGAUAUGCCUAUGGAUACGUAGGCAGAAGGCACAUGAGGAUCACCCAUGUCCAAAGACGGC [JL-BMX4-4.30 Eli mod] (Eterna round: R97, puzzle: Brourd's mod of Exclusion 4)”, the “apparent KD of MS2 coat protein” value (input ligand: FMN 200 uM) came out at 520 nM and the “apparent KD of MS2 coat protein” value (input ligand: none) came to 181 nM.
In the case of “UAUUAGCAAGCACGAUCCCACAUGAGGAUCACCCAUGUGCUCGUCUUAUAAGGUACUGUGACGAAAGUCACGGUACC [Sensor 3, v1 - 94] (puzzle: Sensor v3, turn-off variant 1)”, the “apparent KD of MS2 coat protein” value by setting is: under setting [2], 64.2 nM; under setting [3], 847 nM; under setting [4], 75.9 nM.
Turning to “AUUUAGAGAGGAUAUAUAUUUUAAAACAUGAGGAUCACCCAUGUAAUUUUAUGGGAGAAAAUAGAAGGCUCAUUUA [JMFs Solution 1] (puzzle: Exclusion 5)”, the “apparent KD of MS2 coat protein” value stood at 114 nM under setting [2], 205 nM under setting [3] and 197 nM under setting [4].
With “CCUGAGGUUUGGUAGAAAACAUGAGGAUCACCCAUGUAUGUGCAGGAUAUCGACCGGCUCGCUGCCGAGAAGGGCAUCUACAUA [Eternabot solution 31] (Eterna round: R96, puzzle: Exclusion NG 3)”, the “apparent KD of MS2 coat protein” value (input ligand: FMN 200 uM) worked out at 45.4 nM, the “apparent KD of MS2 coat protein” value under setting [1] amounted to 24.8 nM and the “apparent KD of MS2 coat protein” value (input ligand: none) is 36.9 nM.
